From article PMC10368004

Assays:
Assay in all cases: FM-AFM imaging
Conditions in all cases: remark: other sources report otherwise
annexin A5, P08758 [1] = molecular target: T1, annexin A5, P08758
T1 chain: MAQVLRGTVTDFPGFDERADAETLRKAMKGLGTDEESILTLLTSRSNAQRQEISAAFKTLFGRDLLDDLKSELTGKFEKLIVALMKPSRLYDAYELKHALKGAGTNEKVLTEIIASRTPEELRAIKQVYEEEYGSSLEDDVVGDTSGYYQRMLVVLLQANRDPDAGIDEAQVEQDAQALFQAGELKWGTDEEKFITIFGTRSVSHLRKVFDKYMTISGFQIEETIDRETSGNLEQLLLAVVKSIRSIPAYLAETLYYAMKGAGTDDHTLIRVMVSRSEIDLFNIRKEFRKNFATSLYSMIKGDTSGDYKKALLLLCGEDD

annexin A5, P08758 [2] = molecular target: T1, annexin A5, P08758
annexin A5, P08758 [3] = molecular target: T1, annexin A5, P08758

B1: annexin A5, P08758 1-320 (natural protein)
chain: T1 chain
Annexin A5, P08758 [1]
  percentage of unoccupied hollow sites (vacancies, sites without an H-trimer): 56.1%
Annexin A5, P08758 [2]
  percentage of unoccupied hollow sites (vacancies, sites without an H-trimer): 73.6%
  stoichiometry N: 3
Annexin A5, P08758 [3]
  percentage of unoccupied hollow sites (vacancies, sites without an H-trimer): 65.9%
